Values quoted from earlier work as cited in article PMC9280966 (ACS Omega, 2022).

Molecular target: RHEB (Homo sapiens, UniProt Q15382)
Details: read-out: KD with RHEB (BLI); BLI analysis, earlier study; ref [12]

Sequence of RHEB (Q15382 whole entry): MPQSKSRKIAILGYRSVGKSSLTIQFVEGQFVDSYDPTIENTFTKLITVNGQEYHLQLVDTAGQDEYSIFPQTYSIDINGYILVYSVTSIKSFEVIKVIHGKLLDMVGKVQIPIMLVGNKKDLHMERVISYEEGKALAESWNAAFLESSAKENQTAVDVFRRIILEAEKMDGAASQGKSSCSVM

Substance: mTOR^ΔN: N-heat domain of mTOR (aa 60–167), 6xHis tagged, ∼13 kDa
- Kd: ~6.5 µM
